± gives the uncertainty stated by the source.
System: HEK293T
Experiment: plasma membrane surface immunostaining intensity (anti-HA, deep receptor scanning) (arbitrary fluorescence units); higher = higher plasma membrane expression

Sequence | plasma membrane surface immunostaining intensity (GPCR class: A) | other results
MGENQTMVTEFLLLGFLLGPRIQMLLFGLFSLFYIFTLLGNGAILGLISLDSRLHTPMYFFLSHLAVVDIAYTRNTVPQMLANLLHPAKPISFAGCMTQTFLCLSFGHSECLLLVLMSYDRYVAICHPLRYSVIMTWRVCITLAVTSWTCGSLLALAHVVLILRLPFSGPHEINHFFCEILSVLRLACADTWLNQVVIFAACVFFLVGPPSLVLVSYSHILAAILRIQSGEGRRKAFSTCSSHLCVVGLFFGSAIIMYMAPKSRHPEEQQKVFFLFYSFFNPTLNPLIYSLRNGEVKGALRRALGKESHS [OR2A1] |  | plasma membrane surface immunostaining intensity (GPCR class: A (Olfactory)): 106 ± 11
MGTCDIVTEANISSGPESNTTGITAFSMPSWQLALWATAYLALVLVAVTGNAIVIWIILAHRRMRTVTNYFIVNLALADLCMAAFNAAFNFVYASHNIWYFGRAFCYFQNLFPITAMFVSIYSMTAIAADRYMAIVHPFQPRLSAPSTKAVIAGIWLVALALASPQCFYSTVTMDQGATKCVVAWPEDSGGKTLLLYHLVVIALIYFLPLAVMFVAYSVIGLTLWRRAVPGHQAHGANLRHLQAMKKFVKTMVLVVLTFAICWLPYHLYFILGSFQEDIYCHKFIQQVYLALFWLAMSSTMYNPIIYCCLNHRFRSGFRLAFRCCPWVTPTKEDKLELTPTTSLSTRVNRCHTKETLFMAGDTAPSEATSGEAGRPQDGSGLWFGYGLLAPTKTHVEI [TACR2] | 474 ± 41 | 
MASFSAETNSTDLLSQPWNEPPVILSMVILSLTFLLGLPGNGLVLWVAGLKMQRTVNTIWFLHLTLADLLCCLSLPFSLAHLALQGQWPYGRFLCKLIPSIIVLNMFASVFLLTAISLDRCLVVFKPIWCQNHRNVGMACSICGCIWVVAFVMCIPVFVYREIFTTDNHNRCGYKFGLSSSLDYPDFYGDPLENRSLENIVQPPGEMNDRLDPSSFQTNDHPWTVPTVFQPQTFQRPSADSLPRGSARLTSQNLYSNVFKPADVVSPKIPSGFPIEDHETSPLDNSDAFLSTHLKLFPSASSNSFYESELPQGFQDYYNLGQFTDDDQVPTPLVAITITRLVVGFLLPSVIMIACYSFIVFRMQRGRFAKSQSKTFRVAVVVVAVFLVCWTPYHIFGVLSLLTDPETPLGKTLMSWDHVCIALASANSCFNPFLYALLGKDFRKKARQSIQGILEAAFSEELTRSTHCPSNNVISERNSTTV [C3AR1] | 327 ± 41 | 
MNGDHMVLGSSVTDKKAIILVTILLLLRLVAIAGNGFITAALGVEWVLRRMLLPCDKLLVSLGASRFCLQSVVMGKTIYVFLHPMAFPYNPVLQFLAFQWDFLNAATLWSSTWLSVFYCVKIATFTHPVFFWLKHKLSGWLPWMLFSSVGLSSFTTILFFIGNHRMYQNYLRNHLQPWNVTGDSIRSYCEKFYLFPLKMITWTMPTAVFFICMILLITSLGRHRKKALLTTSGFREPSVQAHIKALLALLSFAMLFISYFLSLVFSAAGIFPPLDFKFWVWESVIYLCAAVHPIILLFSNCRLRAVLKSRRSSRCGTP [TAS2R60] |  | plasma membrane surface immunostaining intensity (GPCR class: Taste): 137 ± 36
MTSGSVFFYILIFGKYFSHGGGQDVKCSLGYFPCGNITKCLPQLLHCNGVDDCGNQADEDNCGDNNGWSLQFDKYFASYYKMTSQYPFEAETPECLVGSVPVQCLCQGLELDCDETNLRAVPSVSSNVTAMSLQWNLIRKLPPDCFKNYHDLQKLYLQNNKITSISIYAFRGLNSLTKLYLSHNRITFLKPGVFEDLHRLEWLIIEDNHLSRISPPTFYGLNSLILLVLMNNVLTRLPDKPLCQHMPRLHWLDLEGNHIHNLRNLTFISCSNLTVLVMRKNKINHLNENTFAPLQKLDELDLGSNKIENLPPLIFKDLKELSQLNLSYNPIQKIQANQFDYLVKLKSLSLEGIEISNIQQRMFRPLMNLSHIYFKKFQYCGYAPHVRSCKPNTDGISSLENLLASIIQRVFVWVVSAVTCFGNIFVICMRPYIRSENKLYAMSIISLCCADCLMGIYLFVIGGFDLKFRGEYNKHAQLWMESTHCQLVGSLAILSTEVSVLLLTFLTLEKYICIVYPFRCVRPGKCRTITVLILIWITGFIVAFIPLSNKEFFKNYYGTNGVCFPLHSEDTESIGAQIYSVAIFLGINLAAFIIIVFSYGSMFYSVHQSAITATEIRNQVKKEMILAKRFFFIVFTDALCWIPIFVVKFLSLLQVEIPGTITSWVVIFILPINSALNPILYTLTTRPFKEMIHRFWYNYRQRKSMDSKGQKTYAPSFIWVEMWPLQEMPPELMKPDLFTYPCEMSLISQSTRLNSYS [RXFP1] | 165 ± 19 | 
MDSFNYTTPDYGHYDDKDTLDLNTPVDKTSNTLRVPDILALVIFAVVFLVGVLGNALVVWVTAFEAKRTINAIWFLNLAVADFLSCLALPILFTSIVQHHHWPFGGAACSILPSLILLNMYASILLLATISADRFLLVFKPIWCQNFRGAGLAWIACAVAWGLALLLTIPSFLYRVVREEYFPPKVLCGVDYSHDKRRERAVAIVRLVLGFLWPLLTLTICYTFILLRTWSRRATRSTKTLKVVVAVVASFFIFWLPYQVTGIMMSFLEPSSPTFLLLKKLDSLCVSFAYINCCINPIIYVVAGQGFQGRLRKSLPSLLRNVLTEESVVRESKSFTRSTVDTMAQKTQAV [C5AR1] | 6196 ± 24 | 
MYKDCIESTGDYFLLCDAEGPWGIILESLAILGIVVTILLLLAFLFLMRKIQDCSQWNVLPTQLLFLLSVLGLFGLAFAFIIELNQQTAPVRYFLFGVLFALCFSCLLAHASNLVKLVRGCVSFSWTTILCIAIGCSLLQIIIATEYVTLIMTRGMMFVNMTPCQLNVDFVVLLVYVLFLMALTFFVSKATFCGPCENWKQHGRLIFITVLFSIIIWVVWISMLLRGNPQFQRQPQWDDPVVCIALVTNAWVFLLLYIVPELCILYRSCRQECPLQGNACPVTAYQHSFQVENQELSRARDSDGAEEDVALTSYGTPIQPQTVDPTQECFIPQAKLSPQQDAGGV [GPRC5D] |  | plasma membrane surface immunostaining intensity (GPCR class: C): 6410 ± 68
MAGNNFTEVTVFILSGFANHPELQVSLFLMFLFIYLFTVLGNLGLITLIRMDSQLHTPMYFFLSNLAFIDIFYSSTVTPKALVNFQSNRRSISFVGCFVQMYFFVGLVCCECFLLGSMAYNRYIAICNPLLYSVVMSQKVSNWLGVMPYVIGFTSSLISVWVISSLAFCDSSINHFFCDTTALLALSCVDTFGTEMVSFVLAGFTLLSSLLIITVTYIIIISAILRIQSAAGRQKAFSTCASHLMAVTIFYGSLIFTYLQPDNTSSLTQAQVASVFYTIVIPMLNPLIYSLRNKDVKNALLRVIHRKLFP [OR8I2] |  | plasma membrane surface immunostaining intensity (GPCR class: A (Olfactory)): 189 ± 85
MEHTHAHLAANSSLSWWSPGSACGLGFVPVVYYSLLLCLGLPANILTVIILSQLVARRQKSSYNYLLALAAADILVLFFIVFVDFLLEDFILNMQMPQVPDKIIEVLEFSSIHTSIWITVPLTIDRYIAVCHPLKYHTVSYPARTRKVIVSVYITCFLTSIPYYWWPNIWTEDYISTSVHHVLIWIHCFTVYLVPCSIFFILNSIIVYKLRRKSNFRLRGYSTGKTTAILFTITSIFATLWAPRIIMILYHLYGAPIQNRWLVHIMSDIANMLALLNTAINFFLYCFISKRFRTMAAATLKAFFKCQKQPVQFYTNHNFSITSSPWISPANSHCIKMLVYQYDKNGKPIKVSP [GPR139] | 3010 ± 800 | 
MASPSLPGSDCSQIIDHSHVPEFEVATWIKITLILVYLIIFVMGLLGNSATIRVTQVLQKKGYLQKEVTDHMVSLACSDILVFLIGMPMEFYSIIWNPLTTSSYTLSCKLHTFLFEACSYATLLHVLTLSFERYIAICHPFRYKAVSGPCQVKLLIGFVWVTSALVALPLLFAMGTEYPLVNVPSHRGLTCNRSSTRHHEQPETSNMSICTNLSSRWTVFQSSIFGAFVVYLVVLLSVAFMCWNMMQVLMKSQKGSLAGGTRPPQLRKSESEESRTARRQTIIFLRLIVVTLAVCWMPNQIRRIMAAAKPKHDWTRSYFRAYMILLPFSETFFYLSSVINPLLYTVSSQQFRRVFVQVLCCRLSLQHANHEKRLRVHAHSTTDSARFVQRPLLFASRRQSSARRTEKIFLSTFQSEAEPQSKSQSLSLESLEPNSGAKPANSAAENGFQEHEV [GPR39] | 5870 ± 200 | 
MEDLEETLFEEFENYSYDLDYYSLESDLEEKVQLGVVHWVSLVLYCLAFVLGIPGNAIVIWFTGFKWKKTVTTLWFLNLAIADFIFLLFLPLYISYVAMNFHWPFGIWLCKANSFTAQLNMFASVFFLTVISLDHYIHLIHPVLSHRHRTLKNSLIVIIFIWLLASLIGGPALYFRDTVEFNNHTLCYNNFQKHDPDLTLIRHHVLTWVKFIIGYLFPLLTMSICYLCLIFKVKKRSILISSRHFWTILVVVVAFVVCWTPYHLFSIWELTIHHNSYSHHVMQAGIPLSTGLAFLNSCLNPILYVLISKKFQARFRSSVAEILKYTLWEVSCSGTVSEQLRNSETKNLCLLETAQ [CMKLR2] | 510 ± 52 | 

From the supplement of paper PMC12458215
